Experimental data as given in patent US20260022175A1 (Chugai, published 2026).
Each block holds one binder with its values, some of them ahead of it.

How the values were obtained:
[1] = target: T1, hCTLA4-His-BAP (human CTLA4 extracellular region with C-terminal His-tag and BAP-tag) (human, biotin on the BAP-tag); test: SPR 37C, no ATP, steady state model
T1 construct: also called hCTLA4-His-Biotin

[2] = target: T1, hCTLA4-His-BAP (human CTLA4 …); test: SPR 37C, ATP 100 µM
[3] = target: T1, hCTLA4-His-BAP (human CTLA4 …); test: SPR 37C, ATP 10 µM
human CTLA4 [4] = target: T2, human CTLA4 (human); test: SPR Biacore T200, 37C, antibody captured, ATP 10 uM; ATP 10 µM
T2 construct: also called hCTLA4; hCTLA4-His-BAP
T2 sequence (chain, as listed by the source limits assumed): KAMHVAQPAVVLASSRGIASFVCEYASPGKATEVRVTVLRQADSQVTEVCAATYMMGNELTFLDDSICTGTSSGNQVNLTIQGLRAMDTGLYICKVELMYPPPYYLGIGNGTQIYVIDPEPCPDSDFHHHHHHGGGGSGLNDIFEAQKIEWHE

human CTLA4 [5] = target: T2, human CTLA4; test: SPR Biacore T200, 37C, antibody captured, ATP 1 uM; ATP 1 µM; binding amount
human CTLA4 [6] = target: T2, human CTLA4; test: SPR Biacore T200, 37C, antibody captured, ATP 100 uM; ATP 100 µM
human CTLA4 [7] = target: T2, human CTLA4; test: SPR Biacore T200, 37C, antibody captured, ATP 100 uM; ATP 100 µM; binding amount
human CTLA4 [8] = target: T2, human CTLA4; test: SPR Biacore T200, 37C, antibody captured, no ATP; no ATP; binding amount
human CTLA4 [9] = target: T2, human CTLA4; test: SPR Biacore T200, 37C, antibody captured, ATP 10 uM; ATP 10 µM; binding amount
[10] = target: T3, human FcγRIIIa V extracellular domain (human, UniProt P08637 17-208); test: SPR Biacore 8K+, antibody captured, FcγR as analyte, 1:1 Langmuir model;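 also: antibodies captured on a streptavidin chip through a biotinylated anti-human Fab kappa reagent, with FcγR extracellular domains injected in pH 7.4 phosphate buffer at 25 °C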
T3 construct: extracellular domain; also called hFcγR IIIa V
T3 sequence (P08637 17-208 F176V limits assumed): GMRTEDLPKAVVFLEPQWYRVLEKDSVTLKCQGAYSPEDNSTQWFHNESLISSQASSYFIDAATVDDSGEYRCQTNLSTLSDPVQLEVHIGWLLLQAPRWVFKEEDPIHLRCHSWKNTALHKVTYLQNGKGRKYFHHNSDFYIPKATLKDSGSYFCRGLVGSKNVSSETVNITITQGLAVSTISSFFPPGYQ

[11] = target: T4, human FcγRIa extracellular domain (human, UniProt P12314 16-292); test: as above
T4 construct: extracellular domain; also called hFcγR Ia; hFcγRIa
T4 sequence (P12314 16-292): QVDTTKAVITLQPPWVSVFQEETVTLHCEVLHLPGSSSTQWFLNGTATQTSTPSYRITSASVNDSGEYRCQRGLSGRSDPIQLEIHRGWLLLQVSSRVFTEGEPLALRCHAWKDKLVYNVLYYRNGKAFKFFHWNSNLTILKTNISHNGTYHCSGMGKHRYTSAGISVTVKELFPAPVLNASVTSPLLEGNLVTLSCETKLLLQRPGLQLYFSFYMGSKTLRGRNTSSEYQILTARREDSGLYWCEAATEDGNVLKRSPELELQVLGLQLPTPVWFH

[12] = target: T5, human FcγRIIa H extracellular domain (human, UniProt P12318 34-217); test: as above
T5 construct: extracellular domain; also called hFcγR IIa H
T5 sequence (looked up): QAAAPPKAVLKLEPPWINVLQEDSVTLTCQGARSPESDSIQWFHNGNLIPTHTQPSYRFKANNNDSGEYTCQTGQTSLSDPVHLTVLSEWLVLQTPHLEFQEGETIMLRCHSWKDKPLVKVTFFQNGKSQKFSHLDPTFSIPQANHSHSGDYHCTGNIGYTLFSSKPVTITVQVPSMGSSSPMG

[13] = target: T6, human FcγRIIIa F extracellular domain (human, UniProt P08637 17-208); test: as above
T6 construct: extracellular domain; also called hFcγR IIIa F
T6 sequence (P08637 17-208): as the sequence (P08637 17-208 F176V limits assumed) above, with V160F counted along it

[14] = target: T7, human FcγRIIa R extracellular domain (human, UniProt P12318 34-217); test: as above
T7 construct: extracellular domain; also called hFcγR IIa R
T7 sequence (looked up): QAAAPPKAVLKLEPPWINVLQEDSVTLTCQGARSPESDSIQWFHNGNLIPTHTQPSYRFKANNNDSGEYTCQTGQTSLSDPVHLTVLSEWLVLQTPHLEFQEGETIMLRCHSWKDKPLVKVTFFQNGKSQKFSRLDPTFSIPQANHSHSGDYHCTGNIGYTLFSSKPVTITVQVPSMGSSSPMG

[15] = target: T3, human FcγRIIIa V extracellular domain; test: SPR Biacore 8K+; KD of G1d divided by KD of this antibody;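 also: antibodies captured on an anti-Fab-kappa streptavidin chip, soluble FcγR ectodomains flowed over, KD by steady-state fit for FcγRIIb and Langmuir kinetic model for the other receptors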
[16] = target: T4, human FcγRIa extracellular domain; test: as above
[17] = target: T8, human FcγRIIb extracellular domain (human, UniProt P31994 43-217); test: as above
T8 construct: extracellular domain; also called hFcγR IIb
T8 sequence (looked up): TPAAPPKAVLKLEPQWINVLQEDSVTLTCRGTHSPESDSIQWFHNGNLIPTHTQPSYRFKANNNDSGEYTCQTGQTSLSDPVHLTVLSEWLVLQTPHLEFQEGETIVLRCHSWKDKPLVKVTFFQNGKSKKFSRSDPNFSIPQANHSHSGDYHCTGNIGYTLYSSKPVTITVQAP

[18] = target: T5, human FcγRIIa H extracellular domain; test: as above
[19] = target: T6, human FcγRIIIa F extracellular domain; test: as above
[20] = target: T7, human FcγRIIa R extracellular domain; test: as above
[21] = target: T9, human C1q protein (Calbiochem) (human, UniProt P02745 23-245; P02746 28-253; P02747 29-245); test: ELISA: antibody coated on the plate at the varied concentration, hC1q 3 µg/mL added, detected with HRP-conjugated anti-hC1q antibody, O.D (450-690nm)
T9 construct: bought; also called hC1q
T9 sequence (P02745 23-245 limits assumed, chain 1 of 3): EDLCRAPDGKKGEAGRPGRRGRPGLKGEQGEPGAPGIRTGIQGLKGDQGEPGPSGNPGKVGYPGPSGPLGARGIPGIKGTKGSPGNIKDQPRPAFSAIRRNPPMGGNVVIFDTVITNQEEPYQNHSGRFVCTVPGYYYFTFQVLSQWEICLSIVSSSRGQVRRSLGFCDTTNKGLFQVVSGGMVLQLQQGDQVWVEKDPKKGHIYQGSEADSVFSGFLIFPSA
T9 sequence (P02746 28-253 limits assumed, chain 2 of 3): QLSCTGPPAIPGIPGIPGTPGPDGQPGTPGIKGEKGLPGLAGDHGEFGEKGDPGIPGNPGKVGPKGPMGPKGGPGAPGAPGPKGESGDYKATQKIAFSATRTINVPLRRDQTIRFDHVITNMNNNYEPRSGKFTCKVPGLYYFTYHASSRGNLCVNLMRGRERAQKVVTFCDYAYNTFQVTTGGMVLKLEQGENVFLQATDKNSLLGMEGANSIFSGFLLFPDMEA
T9 sequence (P02747 29-245 limits assumed, chain 3 of 3): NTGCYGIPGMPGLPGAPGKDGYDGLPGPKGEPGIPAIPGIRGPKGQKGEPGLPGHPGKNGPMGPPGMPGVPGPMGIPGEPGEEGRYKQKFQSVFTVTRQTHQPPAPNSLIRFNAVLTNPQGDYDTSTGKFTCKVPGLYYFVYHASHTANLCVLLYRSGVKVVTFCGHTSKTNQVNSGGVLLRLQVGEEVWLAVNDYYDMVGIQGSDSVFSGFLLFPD

[22] = target: T10, hFcγRIIaH on hFcγRIIaH-expressing Jurkat cells (human, UniProt P12318 34-317); test: cell-based or functional assay
T10 sequence (looked up): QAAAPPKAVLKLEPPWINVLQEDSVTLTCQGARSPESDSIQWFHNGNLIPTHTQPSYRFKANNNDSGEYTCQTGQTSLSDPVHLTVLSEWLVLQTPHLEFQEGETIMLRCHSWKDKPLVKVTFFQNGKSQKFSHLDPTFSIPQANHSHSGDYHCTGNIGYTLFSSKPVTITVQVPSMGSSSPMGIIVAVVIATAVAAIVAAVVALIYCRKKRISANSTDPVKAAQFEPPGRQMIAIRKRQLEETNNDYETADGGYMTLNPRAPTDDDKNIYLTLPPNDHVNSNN

[23] = target: T8, human FcγRIIb extracellular domain; test: SPR Biacore 8K+, antibody captured, FcγR as analyte, steady state affinity model
[24] = target: T3, human FcγRIIIa V extracellular domain; test: SPR Biacore 8K+; KD for FcγRIIb divided by KD for this FcγR;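 also: antibodies captured on an anti-human Fab kappa SA chip with soluble human FcγR ectodomains flowed over, FcγRIIb KD from steady-state fit, other FcγR KD from Langmuir model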
[25] = target: T5, human FcγRIIa H extracellular domain; test: as above
[26] = target: T6, human FcγRIIIa F extracellular domain; test: as above
[27] = target: T7, human FcγRIIa R extracellular domain; test: as above
[28] = target: hFcγRIIIaV on hFcγRIIIaV-expressing Jurkat cells (human, UniProt P08637 17-254); test: cell-based or functional assay
Sequence of hFcγRIIIaV on hFcγRIIIaV-expressing Jurkat cells (P08637 17-254, form in doubt): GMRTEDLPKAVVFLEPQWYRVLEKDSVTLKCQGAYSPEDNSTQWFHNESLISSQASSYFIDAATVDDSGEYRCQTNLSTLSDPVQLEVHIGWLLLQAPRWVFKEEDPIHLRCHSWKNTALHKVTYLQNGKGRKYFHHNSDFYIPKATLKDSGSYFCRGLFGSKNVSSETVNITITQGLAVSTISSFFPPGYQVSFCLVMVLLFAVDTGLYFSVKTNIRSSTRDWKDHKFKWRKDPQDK

T1 sequence (chain, as listed by the source limits assumed): as the sequence (chain, as listed by the source limits assumed) above

B1: 04H1077-G1m/04L1066-lam1 (antibody, human IgG1, lambda, V domains shown)
VH: EVQLVESGGDLVKPGGGLRLSCAASGFTFSSRTMNWVRQAPGKGLEWVSSISTRSGYIYYAESVKGRFTISRDNAKNSLYLQMNSLRAEDTAVYYCARYGKREDMLWVFDYWGQGTLVTVSS
VL: QSALTQPPSASGSPGQTVTISCDGPSTDVGDYNWVHWYQQHPGKAPKLMIYFTSKKPSGVPDRFSGSKSGNTASLTVSGLQAEDEADYFCSTYAAPLGPMFGGGTKLTVLG
- Kd [1]: 6900 nM
- Kd [2]: 48 nM
- Kd [3]: 280 nM

B2: 04H1382-G1m/04L1086-lam1 (antibody, human IgG1, lambda, V domains shown)
VH: EVQLVESGGGLVKPGGSLRLSCAASGFTFSSKTMNWVRQAPGKGLEWVSSISTQSHYIYYARSVKGRFTISRDNAKNSLYLQMNSLRAEDTAVYYCARYGKREDMLWVFDYWGQGTLVTVSS
VL: QSALTQPPSASGSPGQTVTISCDGPSTGVGDYNYVHWYQQHPGKAPKLMIYFTSKKPSGVPDRFSGSKSGNTASLTVSGLQAEDEADYFCQTYAAPLGPMFGGGTKLTVLG
- Kd (human CTLA4 [4]): 46 nM
- Binding to Human CTLA4 (binding amount per unit amount of antibody) (human CTLA4 [5]): 0.09
- Kd (human CTLA4 [6]): 14 nM
- Binding to Human CTLA4 (binding amount per unit amount of antibody) (human CTLA4 [7]): 0.159
- Binding to Human CTLA4 (binding amount per unit amount of antibody) (human CTLA4 [8]): 0.008
- Binding to Human CTLA4 (binding amount per unit amount of antibody) (human CTLA4 [9]): 0.152

B4: 04H1207-G1m/04L1086-lam1 (antibody, human IgG1, lambda, V domains shown)
VH: EVQLVESGGGLVKPGGSLRLSCAASGFTFSSKTMNWVRQAPGKGLEWVSSISTRSGYIYYAESVKGRFTISRDNAKNSLYLQMNSLRAEDTAVYYCARYGKREDMLWVFDYWGQGTLVTVSS
VL: QSALTQPPSASGSPGQTVTISCDGPSTGVGDYNYVHWYQQHPGKAPKLMIYFTSKKPSGVPDRFSGSKSGNTASLTVSGLQAEDEADYFCQTYAAPLGPMFGGGTKLTVLG
notes: Human IgG1 constant region G1m (C-terminal Gly and Lys removed), human lambda chain lam1
- Kd (human CTLA4 [4]): 400 nM
- Binding to Human CTLA4 (binding amount per unit amount of antibody) (human CTLA4 [5]): 0.037
- Kd (human CTLA4 [6]): 76 nM
- Binding to Human CTLA4 (binding amount per unit amount of antibody) (human CTLA4 [7]): 0.166
- Binding to Human CTLA4 (binding amount per unit amount of antibody) (human CTLA4 [8]): 0.01
- Binding to Human CTLA4 (binding amount per unit amount of antibody) (human CTLA4 [9]): 0.111

Now from value to binder:

- Kd (human CTLA4 [4]): 510 nM
- Binding to Human CTLA4 (binding amount per unit amount of antibody) (human CTLA4 [5]): 0.022
- Kd (human CTLA4 [6]): 91 nM
- Binding to Human CTLA4 (binding amount per unit amount of antibody) (human CTLA4 [7]): 0.139
- Binding to Human CTLA4 (binding amount per unit amount of antibody) (human CTLA4 [8]): 0.003
- Binding to Human CTLA4 (binding amount per unit amount of antibody) (human CTLA4 [9]): 0.084
B3: 04H1208-G1m/04L1086-lam1 (antibody, human IgG1, lambda, V domains shown)
VH: EVQLVESGGGLVKPGGSLRLSCAASGFTFSSKTMNWVRQAPGKGLEWVSSISTRSGYIYYARSVKGRFTISRDNAKNSLYLQMNSLRAEDTAVYYCARYGKREDMLWVFDYWGQGTLVTVSS
VL: QSALTQPPSASGSPGQTVTISCDGPSTGVGDYNYVHWYQQHPGKAPKLMIYFTSKKPSGVPDRFSGSKSGNTASLTVSGLQAEDEADYFCQTYAAPLGPMFGGGTKLTVLG

- Kd [10]: 15.2 nM
- Kd [11]: 0.00423 nM
- Kd [12]: 162 nM
- Kd [13]: 29.8 nM
- Kd [14]: 161 nM
- Relative value to KD between G1d and hFcgRs [15]: 23.6
- Relative value to KD between G1d and hFcgRs [16]: 21.3
- Relative value to KD between G1d and hFcgRs [17]: 3.8
- Relative value to KD between G1d and hFcgRs [18]: 6.9
- Relative value to KD between G1d and hFcgRs [19]: 99.1
- Relative value to KD between G1d and hFcgRs [20]: 10.3
- binding result [21]: no binding (tested: 30 µg/mL)
- EC50 value (hFcγRIIaH ADCP Reporter Bioassay, Hepa1-6/hEREG target cells) [22]: 0.0324 µg/mL
- Kd [23]: 2670 nM
- A/I ratio (KD for FcγRIIb divided by KD for each FcγR) [24]: 176
- A/I ratio (KD for FcγRIIb divided by KD for each FcγR) [25]: 16.5
- A/I ratio (KD for FcγRIIb divided by KD for each FcγR) [26]: 89.3
- A/I ratio (KD for FcγRIIb divided by KD for each FcγR) [27]: 16.5
- EC50 value (hFcγRIIIaV ADCC Reporter Bioassay, Hepa1-6/hEREG target cells) [28]: 0.00208 µg/mL
B5: H240-GASDALIE/L73-k0 (antibody, human IgG1, kappa)
heavy: QDQLVQSGAEVKKPGASVKVSCKASGFNIKDTYIQWVRQAPGQGLEWMGRIDPLRKQTKYREKFEGRVTITADTSTNTAYMELSSLRSEDTAVYYCVRSGREFDYWGQGTLVTVSSASTKGPSVFPLAPSSKSTSGGTAALGCLVKDYFPEPVTVSWNSGALTSGVHTFPAVLQSSGLYSLSSVVTVPSSSLGTQTYICNVNHKPSNTKVDKKVEPKSCDKTHTCPPCPAPELLAGPDVFLFPPKPKDTLMISRTPEVTCVVVDVSHEDPEVKFNWYVDGVEVHNAKTKPREEQYNSTYRVVSVLTVLHQDWLNGKEYKCKVSNKALPLPEEKTISKAKGQPREPQVYTLPPSRDELTKNQVSLTCLVKGFYPSDIAVEWESNGQPENNYKTTPPVLDSDGSFFLYSKLTVDKSRWQQGNVFSCSVMHEALHNHYTQKSLSLSP
light: DIQMTQSPSSLSASVGDRVTITCRASQDIHKYIAWYQQKPGQAPRLLIQYTSTLQPGVPSRFSGSGSGTDYTFTISSLQPEDIATYYCLQYEQLRTFGGGTKVEIKRTVAAPSVFIFPPSDEQLKSGTASVVCLLNNFYPREAKVQWKVDNALQSGNSQESVTEQDSKDSTYSLSSTLTLSKADYEKHKVYACEVTHQGLSSPVTKSFNRGEC
